# According to the supplement of paper PMC10126150:
# ± gives the standard deviation of the averaged measurements.
# Tested on: ATP
# Assay: switch fluorescence ratio, 500 uM ATP over buffer (Cy3 cluster intensity, sum of 5 cycles each) (fold (ratio)); higher = stronger signal-on switching upon ATP binding; sequences stand for … in TCGTCGGCAGCGTCAGATGTGTATAAGAGACAGTTTTTTTTTTTTTTTTTTTTTTTTT…TC
# Conditions: aptamer strand: ATP DNA aptamer (quencher-CACCTGGGGGAGTATTGCGGAGGAAGG + anchor), 100 nM annealed; ATP concentration: 500 uM
# In short: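 Per cluster, summed Cy3 intensity from the target cycles was divided by that from the buffer cycles to give the fluorescence ratio, then averaged per switch-domain sequence. Clusters outside 100-1000 RFU were excluded. The Cy3-labelled switching-strand clusters, on a modified Illumina MiSeq flow-cell, were annealed to 100 nM quencher-labelled ATP aptamer and imaged in selection buffer, then after 15 min with 500 uM ATP at 22 °C, for five cycles with NaOH stripping and re-annealing between them.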
# 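Also: ATP exposure 15 min at 22 °C before imaging.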
row,Sequence,switch fluorescence ratio
1,CGGGGGATGT,0.999 ± 0.024
2,CGGGGGATT,1.03 ± 0.02
3,CGGGGGCCGT,0.936 ± 0.014
4,CGGGGGCGTT,1 ± 0.018
5,CGGGGGCTG,1 ± 0.039
6,CGGGGGCTGG,0.989 ± 0.059
7,CGGGGGCTTT,0.99 ± 0.017
8,CGGGGGGGCA,1 ± 0.038
9,CGGGGGGGGG,1.02 ± 0.054
10,CGGGGGGTCT,0.999 ± 0.04
11,CGGGGGTACG,1.02 ± 0.074
12,CGGGGGTAGA,0.966 ± 0.042
13,CGGGGGTAGG,1.03 ± 0.049
14,CGGGGGTCGG,0.978 ± 0.012
15,CGGGGGTCTT,1 ± 0.021
16,CGGGGGTTAG,0.999 ± 0.033
17,CGGGGGTTTT,0.994 ± 0.034
18,CGGGGTATGG,1 ± 0.011
19,CGGGGTCGTA,1 ± 0.047
20,CGGGGTCTTC,0.996 ± 0.012
21,CGGGGTGCGA,1.02 ± 0.021
22,CGGGGTTCGA,1 ± 0.011
23,CGGGGTTGCT,1.03 ± 0.054
24,CGGGGTTGGT,1.01 ± 0.016
25,CGGGGTTGTC,0.966 ± 0.069
26,CGGGTAAGTG,0.97 ± 0.014

row,Sequence,switch fluorescence ratio
1,CGGGTATAGG,1.013 ± 0.01
2,CGGGTATGAT,1.031 ± 0.0092
3,CGGGTATTCT,0.974 ± 0.046
4,CGGGTATTTA,1.01 ± 0.025
5,CGGGTATTTT,0.9878 ± 0.0043
6,CGGGTCTGTT,0.979 ± 0.047
7,CGGGTGACTC,1.02 ± 0.012
8,CGGGTGAGCT,1.11 ± 0.16
9,CGGGTGAGTT,1.15 ± 0.25
10,CGGGTGCCGT,1.06 ± 0.15
11,CGGGTGCGGG,1.02 ± 0.038
12,CGGGTGGGAG,0.991 ± 0.038
13,CGGGTGGGTG,1.01 ± 0.013
14,CGGGTGGTTG,1.04 ± 0.04
15,CGGGTGTGAG,1.006 ± 0.0055
16,CGGGTGTGCG,0.955 ± 0.088
17,CGGGTGTGGC,1.05 ± 0.015
18,CGGGTTAGTG,0.992 ± 0.023
19,CGGGTTGGGC,1.07 ± 0.027
20,CGGGTTGTCT,0.963 ± 0.1
21,CGGGTTGTTA,0.9951 ± 0.0081
22,CGGGTTTTGA,1.003 ± 0.0086
23,CGGTAAAAAG,1.01 ± 0.017
24,CGGTAAATGG,1.02 ± 0.04
25,CGGTAAGGGG,0.987 ± 0.01
26,CGGTAATGGG,0.943 ± 0.031

row,Sequence,switch fluorescence ratio
1,CGGTACGCTG,1.01 ± 0.017
2,CGGTACGTTT,1.007 ± 0.0015
3,CGGTAGGATC,0.995 ± 0.03
4,CGGTAGGGGT,0.969 ± 0.028
5,CGGTAGGGTA,0.991 ± 0.026
6,CGGTAGTATC,0.982 ± 0.049
7,CGGTAGTCGA,1.02 ± 0.052
8,CGGTATCCGT,0.978 ± 0.062
9,CGGTATCTGA,0.9888 ± 0.006
10,CGGTATTGGT,0.976 ± 0.031
11,CGGTATTTGC,0.979 ± 0.0099
12,CGGTATTTTT,1.02 ± 0.028
13,CGGTCAACG,0.993 ± 0.022
14,CGGTCACGCG,0.972 ± 0.039
15,CGGTCAGGGA,1.01 ± 0.037
16,CGGTCATTCA,1.02 ± 0.055
17,CGGTCCGGG,1.05 ± 0.061
18,CGGTCCGGTT,0.9862 ± 0.0018
19,CGGTCGCAGT,1.02 ± 0.055
20,CGGTCGGGAA,1.005 ± 0.01
21,CGGTCGGGAT,0.9606 ± 0.0031
22,CGGTCGGGCG,1.03 ± 0.023
23,CGGTCTATTG,1.002 ± 0.0098
24,CGGTCTCATC,1.02 ± 0.014
25,CGGTGAAGTT,0.966 ± 0.01
26,CGGTGCATGG,0.991 ± 0.1

row,Sequence,switch fluorescence ratio
1,CGGTGCCTTG,0.978 ± 0.026
2,CGGTGCGATT,1.03 ± 0.019
3,CGGTGCTACT,1.03 ± 0.063
4,CGGTGCTGCG,1.065 ± 0.0039
5,CGGTGGCTCC,1.026 ± 0.0025
6,CGGTGGGAGA,1.023 ± 0.0078
7,CGGTGGGAGT,0.973 ± 0.03
8,CGGTGGGGGA,0.986 ± 0.025
9,CGGTGGGGGC,0.9806 ± 0.0057
10,CGGTGGTGAG,1.012 ± 0.0049
11,CGGTGGTTGT,0.9948 ± 0.0052
12,CGGTGTACGC,1.061 ± 0.0034
13,CGGTGTATCG,0.983 ± 0.027
14,CGGTGTGTCT,1.02 ± 0.019
15,CGGTGTTGTT,1.018 ± 0.0014
16,CGGTGTTTGG,0.972 ± 0.015
17,CGGTTAGACT,0.975 ± 0.05
18,CGGTTAGTGT,0.971 ± 0.035
19,CGGTTATATG,1.02 ± 0.015
20,CGGTTCGCGT,0.972 ± 0.031
21,CGGTTCTCTC,1.02 ± 0.013
22,CGGTTGACTT,0.992 ± 0.057
23,CGGTTGATGC,0.997 ± 0.059
24,CGGTTGGTGA,0.974 ± 0.035
25,CGGTTGTACC,1.007 ± 0.0079
26,CGGTTGTGAA,0.963 ± 0.018

row,Sequence,switch fluorescence ratio
1,CGGTTGTGGG,0.996 ± 0.018
2,CGGTTTCTGG,0.9856 ± 0.0053
3,CGGTTTCTTT,0.967 ± 0.053
4,CGGTTTGACT,0.9563 ± 0.0063
5,CGGTTTGCGG,0.982 ± 0.017
6,CGGTTTGGAT,1.01 ± 0.035
7,CGGTTTGGTG,1.01 ± 0.029
8,CGGTTTTAAG,1.02 ± 0.018
9,CGGTTTTGTA,0.971 ± 0.028
10,CGGTTTTGTT,1.02 ± 0.035
11,CGTAAAAGAT,1.04 ± 0.06
12,CGTAAAATCG,0.995 ± 0.042
13,CGTAAATTAT,0.993 ± 0.029
14,CGTAAATTGG,1.02 ± 0.013
15,CGTAATAAGG,0.98799 ± 0.00022
16,CGTAATGAAG,1.004 ± 0.0064
17,CGTAATGCCT,1.03 ± 0.098
18,CGTACATGT,1.02 ± 0.024
19,CGTACGTCAT,1.08 ± 0.04
20,CGTACGTTCT,1.026 ± 0.0096
21,CGTACTTCCG,1.019 ± 0.0053
22,CGTACTTGGG,0.982 ± 0.011
23,CGTAGAATGT,0.992 ± 0.022
24,CGTAGAGAGG,0.998 ± 0.0029
25,CGTAGCTTTT,1.82 ± 0.67
26,CGTAGGCGTA,0.98 ± 0.03

row,Sequence,switch fluorescence ratio
1,CGTAGGGGCT,1 ± 0.011
2,CGTAGTTCTT,1.01 ± 0.03
3,CGTAGTTTCG,1.013 ± 0.008
4,CGTAGTTTTA,1.044 ± 0.0041
5,CGTATAGGAT,1.01 ± 0.036
6,CGTATATAGT,1.01 ± 0.014
7,CGTATATGTG,0.989 ± 0.035
8,CGTATCAAAA,1.02 ± 0.019
9,CGTATGAAAA,1 ± 0.014
10,CGTATGAAGA,1.02 ± 0.016
11,CGTATGCAGT,1.01 ± 0.011
12,CGTATGCTGG,1.02 ± 0.019
13,CGTATGGGAA,1.026 ± 0.0082
14,CGTATTAGGT,0.9553 ± 0.0086
15,CGTATTATTA,0.988 ± 0.03
16,CGTATTCGCT,0.993 ± 0.021
17,CGTATTTCAG,0.983 ± 0.011
18,CGTCAACTGC,1.17 ± 0.039
19,CGTCACCGGG,1.11 ± 0.032
20,CGTCACTAGC,1.04 ± 0.022
21,CGTCAGGGGG,0.972 ± 0.027
22,CGTCATGGGT,1 ± 0.035
23,CGTCATTTTC,1.05 ± 0.1
